# Experiments:
# [1] = target: T1, hPD-L1-hFc (human); assay: ELISA, coated PD-L1-hFc
# T1 construct: it may hold a signal peptide ('open reading frame of the extracellular domain'); also called PD-L1-hFc protein; human PD-L1 extracellular domain fused with human Fc tag
# Protocol: ELISA binding analyses were conducted based on human PD-L1-mFc (for chimeric and humanized antibody detection) and PD-L1-hFc protein (for hybridoma antibody detection). 96-well plates (Costar, Cat No: 9018) were coated with 100 μL of 2 μg/ml PD-L1-mFc (Crownbio) in coating buffer PBS (Hyclone, Cat No: SH30256.01B) overnight at 4° C. The wells were aspirated and non-specific binding sites were blocked by adding 200 μL of blocking buffer (PBS with 1% (w/v) of bovine serum albumin (BSA, Roche, Cat No:738328)) and incubating for 1 hour at 37° C. After the plates were washed three times with wash buffer (PBS with 0.05% (v/v) Tween20 (Sigma, Cat No:P1379)), 100 μL/well of 1:10 serial dilutions of hybridoma (FIG. 1), chimeric (FIG. 2), or humanized (FIG. 3) anti-PD-L1 antibodies in blocking buffer (starting from 20 μg/mL) were added and incubated at room temperature for 1 hour. The plates were washed and incubated with 100 μL/well of Goat anti-Mouse IgG (H+L) (Thermo, Cat No: 31432) in blocking buffer for 60 min. After the plates were washed, 100 μL/well of substrate solution TMB (eBioscience, Cat No: 00-4201-56) were added and the plates were incubated for 2 min at room temperature. 100 μL/well of stop solution (2N H₂SO₄) was added to stop the reaction. The colorimetric signals were developed and read at 450 nm using an Auto Plate SpectraMax Plus (Supplier: Moleculer Devices; Model: MNR0643; Software: SoftMax Pro v5.4). Data were analyzed using GraphPad Prism 5 and EC50 was calculated (FIGS. 1-3; Tables 5-7).
# [2] = target: T2, PD-L1 on 293T cells (UniProt Q9NZQ7 19-290); assay: flow cytometry on PD-L1-293T cells
# T2 construct: whole, on cells; also called PD-L1-293T; 293T-PD-L1 cells
# T2 sequence (Q9NZQ7 19-290 limits assumed): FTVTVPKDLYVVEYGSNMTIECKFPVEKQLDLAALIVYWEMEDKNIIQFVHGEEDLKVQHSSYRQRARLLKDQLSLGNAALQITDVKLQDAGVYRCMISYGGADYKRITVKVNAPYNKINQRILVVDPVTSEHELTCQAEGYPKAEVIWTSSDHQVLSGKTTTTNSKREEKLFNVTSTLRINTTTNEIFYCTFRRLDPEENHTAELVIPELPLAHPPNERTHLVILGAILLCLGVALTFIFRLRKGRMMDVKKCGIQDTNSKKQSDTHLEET
# Protocol: Cell binding analyses of anti-PD-L1 antibodies were performed based on binding to a 293T cell line stably expressing PD-L1 (PD-L1-293T). 2×10⁵ 293T-PD-L1 cells were added into each well of 96-well culture plates and incubated with the indicated antibody (20 μg/ml with the dilution of 1:5) at 4° C. for 1 h. After the cells were washed three times with FACS buffer, the secondary antibody (PE Goat anti-mouse: 1:200; PE mouse anti-human: 1:10) was added to the cells at 100 μl/well, and incubated at 4° C. for 40 min. Cells were washed three times with FACS buffer and analyzed by FACS Array.
# [3] = target: T3, Human PD-L1 (human, UniProt Q9NZQ7 19-238, limits assumed); assay: SPR (Biacore 3000), antibody captured, PD-L1 as analyte, 1:1 fit
# T3 construct: also called PD-L1 analyte (Biacore); hPD-L1
# T3 sequence (Q9NZQ7 19-238 limits assumed): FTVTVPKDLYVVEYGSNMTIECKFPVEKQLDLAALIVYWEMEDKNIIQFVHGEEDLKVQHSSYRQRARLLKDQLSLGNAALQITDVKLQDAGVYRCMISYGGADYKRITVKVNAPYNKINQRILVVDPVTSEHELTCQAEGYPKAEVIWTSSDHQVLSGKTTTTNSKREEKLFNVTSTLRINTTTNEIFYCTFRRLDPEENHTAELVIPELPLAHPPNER
# Protocol: The binding kinetics between PD-L1 and PD-L1 antibodies were measured by Biacore analysis, which was performed at 25° C. on a Biacore3000 instrument and recorded with a data collection rate of 1 Hz. Polyclonal rabbit anti-mouse IgG (GE, BR-1008-38) was diluted with 10 mM pH 5.0 sodium acetate and immobilized onto reference and experiment flow cells of a CM5 biosensor chip to around 15000 RU using an amine coupling kit (GE, BR10050). […] PD-L1 analyte series were prepared by diluting the stocks with running buffer to 100 nM followed by 2× serial dilution in the same buffer down to 0.78 nM. Analytes were injected in series over the reference and experiment flow cells for 3 minutes at a flow rate of 30 μL/minute. Running buffer (PBS with 0.05% P20) was allowed to flow over for 10 minutes at a flow rate of 30 μL/minute. At the end of each cycle, the biosensor surface was regenerated with 3 minutes injection of 10 mM pH1.7 Glycine-HCl buffer at a flow rate of 10 μL/minute. For each analyte sample injection (i.e. each cycle), binding responses obtained from the experimental biosensor surface were double referenced by subtracting simultaneously recorded responses from the reference surface followed by additional subtraction of responses from a single referenced running buffer sample. The association and dissociation rate constants (ka and kd) were determined simultaneously by fitting double-referenced sensorgrams of the entire titration series to Langmuir model (1:1) using Biaevaluation 4.0 software. The dissociation constant, KD, was calculated from the determined rate constants by the relation KD=kd/ka.
# [4] = target: T4, biotinylated human PD-L1-mFc (human, biotinylated (sites not given)); assay: competition ELISA: blocks PD-L1-mFc-biotin binding to coated PD-1-hFc
# T4 construct: also called PDL-1-mFc-biotin
# T4 sequence (chain, as listed by the source limits assumed): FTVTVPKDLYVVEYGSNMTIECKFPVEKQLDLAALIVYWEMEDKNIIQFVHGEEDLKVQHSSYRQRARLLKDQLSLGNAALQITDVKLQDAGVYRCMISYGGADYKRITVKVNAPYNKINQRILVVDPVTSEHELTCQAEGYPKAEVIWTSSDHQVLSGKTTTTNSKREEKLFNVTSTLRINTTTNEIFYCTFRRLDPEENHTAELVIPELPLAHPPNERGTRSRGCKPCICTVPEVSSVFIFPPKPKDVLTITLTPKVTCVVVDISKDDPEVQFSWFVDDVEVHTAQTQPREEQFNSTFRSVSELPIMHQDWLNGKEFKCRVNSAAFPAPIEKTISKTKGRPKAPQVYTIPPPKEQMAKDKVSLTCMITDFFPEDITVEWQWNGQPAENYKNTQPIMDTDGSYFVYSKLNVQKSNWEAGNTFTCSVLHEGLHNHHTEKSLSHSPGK
# Protocol: The wells were aspirated and non-specific binding sites were blocked by adding 200 μL of blocking buffer (PBS with 1% (w/v) of bovine serum albumin (BSA, Roche, Cat No:738328)) and incubating for 1 hour at 37° C. After the plate was washed three times with wash buffer (PBS with 0.05% (v/v) Tween20 (Sigma, Cat No:P1379)), 100 μL/well of 1:3 serial dilutions of hybridoma (FIG. 4), chimeric (FIG. 5), or humanized (FIG. 6) anti-PD-L1 antibodies in blocking buffer (starting from 20 μg/mL) were added and incubated at 37° C. for 1 hour. […] After the plate was washed 3 times, secondary antibody (Avidin HRP eBioscience cat No.: E07418-1632, 1:500, 100 μl/well) was added and incubated at 37° C. for 0.5 hour. After the plate was washed, 100 μL/well of substrate solution TMB (eBioscience, Cat No: 00-4201-56) was added and the plate was incubated for 3min at room temperature. 100 μL/well of stop solution (2N H₂SO₄) was added to stop the reaction. The colorimetric signals were developed and read at 450 nm using an Auto Plate SpectraMax Plus (Supplier: Moleculer Devices; Model: MNR0643; Software: SoftMax Pro v5.4). Data were analyzed using GraphPad Prism 5 and IC50 was calculated (FIGS. 4-6; Tables 8-10).
# [5] = target: T2, PD-L1 on 293T cells; assay: flow cytometry competition: blocks biotin-labeled PD-1 binding to PD-L1-293T cells
# Protocol: Briefly, PD-L1-293T cells were suspended in FACS buffer (PBS with 3% fetal calf serum). Various concentrations of the hybridoma (FIG. 10), chimeric (FIG. 11), or humanized (FIG. 12) anti-PD-L1 antibodies were added to the cell suspension and incubated at 4° C. for 60 minutes in 96 well plates. […] The cells were washed 3 times with PBS and incubated with mouse anti-biotin PE (Biolegend, cat# 409004). The cell-associated fluorescence was then detected by flow cytometry analysis using FACS array.
# T1 sequence (chain, as listed by the source limits assumed): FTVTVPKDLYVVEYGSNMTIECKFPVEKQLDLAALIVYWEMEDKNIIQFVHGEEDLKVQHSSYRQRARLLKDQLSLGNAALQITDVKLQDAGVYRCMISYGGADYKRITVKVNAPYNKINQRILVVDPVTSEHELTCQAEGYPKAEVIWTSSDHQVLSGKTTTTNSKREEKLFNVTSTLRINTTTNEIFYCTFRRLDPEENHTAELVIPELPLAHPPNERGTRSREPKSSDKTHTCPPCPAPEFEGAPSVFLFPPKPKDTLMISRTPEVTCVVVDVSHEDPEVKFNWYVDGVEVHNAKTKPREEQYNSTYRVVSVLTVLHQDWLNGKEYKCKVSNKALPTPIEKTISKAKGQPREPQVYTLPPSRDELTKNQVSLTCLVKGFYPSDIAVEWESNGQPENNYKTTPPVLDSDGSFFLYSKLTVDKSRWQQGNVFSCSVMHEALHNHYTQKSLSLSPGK
Binder,EC50 [1] [µg/mL],EC50 [2] [µg/mL],Kd [3] [nM],IC50 [4] [µg/mL],IC50 [5] [µg/mL]
ch13C5 (antibody) VH: EVKLVESGGGLVKPGGSLKLSCAASGFIFRSYGMSWVRQTPEKRLEWVASISSGGSTYYPDSVKGRFTISRDNARNILYLQMSSLRSEDTAMYDCARGYDSGFAYWGQGTLVTVSE light: not shown,,,2.28,,
"m5G9 (antibody, V domains shown, Murine hybridoma IgG (printed 'mIgG'); also called 5G9-mIgG; 5G9 murine) VH: EVKLVESGGGLVKPGGSLKLSCAASGFTFRSYGMSWVRQTPEKRLEWVASISSGGTTYYPDSVKGRFIISRDNARNILYLQMSSLRSEDTAMYYCAKGYDSGFAYWGQGTLVIVSA VL: DIVLTQSPPSLAVSLGQRATISCRASQSVSTSSSSYMHWYQQKPGQPPKLLIKYASNLESGVPARFSGSGSGTDFTLNIHPVEEEDTATYYCQHSWEIPYTFGGGTKLEIK",0.0312,0.0337,4.78,0.613,0.0491
"m5G11 (antibody, V domains shown, Murine hybridoma IgG (printed 'mIgG'); also called 5G11-mIgG; 5G11 murine) VH: QVQLKQSGPGLVQPSQSLSITCTVSGFSLTTYGVHWVRQSPGKGLEWLGVIWRGVTTDYNAAFMSRLTITKDNSKSQVFFKMNSLQANDTAIYYCARLGFYAMDYWGQGTSVTVSS VL: SIVMTQTPKFLLVSAGDRVTITCKASQSVSNDVAWYQQKPGQSPKLLIYYAANRYTGVPDRFTGSGYGTDFTFTISIVQAEDLAVYFCQQDYTSPYTFGGGTKLEIK",0.0459,0.0359,0.19,0.71,0.0163
"m4A8 (antibody, V domains shown, Murine hybridoma IgG (printed 'mIgG'); also called 4A8-mIgG; 4A8 murine) VH: QVQLKQSGPGLVQPSQSLSITCTVSGFSLTSYGVHWVRQSPGKGLEWLGVIWSGGITDYNAAFKSRLSISKDNSKSQVFFKMNSLQANDTAIYFCARLGFYAMDYWGQGTSVTVSS VL: QIVLTQSPAIMSASPGEKVTMTCSANSSVSYMHWYQQKSGTSPKRWIYDTSKLASGVPARFSGSGSGTSYSLTISSMGAEDAATYYCQQWSSNPWTFGGGTKLEIK",0.0576,0.0678,2.33,0.868,0.0291
"ch5G11 (antibody, Mouse VH linked to a human constant region) VH: QVQLKQSGPGLVQPSQSLSITCTVSGFSLTTYGVHWVRQSPGKGLEWLGVIWRGVTTDYNAAFMSRLTITKDNSKSQVFFKMNSLQANDTAIYYCARLGFYAMDYWGQGTSVTVSS light: SIVMTQTPKFLLVSAGDRVTITCKASQSVSNDVAWYQQKPGQSPKLLIYYAANRYTGVPDRFTGSGYGTDFTFTISIVQAEDLAVYFCQQDYTSPYTFGGGTKLEIKRTVAAPSVFIFPPSDEQLKSGTASVVCLLNNFYPREAKVQWKVDNALQSGNSQESVTEQDSKDSTYSLSSTLTLSKADYEKHKVYACEVTHQGLSSPVTKSFNRGEC",,,0.286,,

# The remaining lines, values ahead:
EC50 [1] [µg/mL],EC50 [2] [µg/mL],Kd [3] [nM],IC50 [4] [µg/mL],IC50 [5] [µg/mL],Binder
0.029,0.0435,4.56,0.788,0.0306,"m8H4 (antibody, V domains shown, Murine hybridoma IgG (printed 'mIgG'); also called 8H4-mIgG; 8H4 murine) VH: EVKLVESGGGLVKPGGSLKLSCAASGFTFRSYGMSWARQIPEKRLEWVASISSGGTTYYLGSVQGRFTISRDNARNILYLQMSSLRSEDTAMYYCARGYDAGFAYWGQGTLVSVSE VL: DIVLTQSPASLAVSLGQRATISCRASQSVSTSSYSYMHWYQQKPGQPPKLLIKYASNLESGVPARFSGSGSGTDFTLNIHPVEEEDTATYYCQNSWEIPYTFGGGTKLEIK"
0.0487,0.0478,3.59,0.655,0.0211,"m15F1 (antibody, V domains shown, Murine hybridoma IgG (printed 'mIgG'); also called 15F1-mIgG; 15F1 murine) VH: EEKLVESGGGLVKPGGSLKLSCAASGFSFSSYGMSWVRQTPEKRLEWVASISSGGSIYYPDSVKGRFTISRDNARNILYLQMSSLRSEDTAMYYCARGYDAGFAFWGQGTLVTASA VL: DIVLTQSPASLAVSLGQRATISCRASQSVSTSSYSYVHWYQQKPGQPPKLLIKYASNLESGVPARFSGSGSGTDFTLNIHPVEEEDTATYYCQHSWEIPYTFGGGTKLEIK"
0.0651,0.0453,1.35,0.872,0.0289,"m13C5 (antibody, V domains shown, Murine hybridoma IgG (printed 'mIgG'); also called 13C5-mIgG; 13C5 murine) VH: EVKLVESGGGLVKPGGSLKLSCAASGFIFRSYGMSWVRQTPEKRLEWVASISSGGSTYYPDSVKGRFTISRDNARNILYLQMSSLRSEDTAMYDCARGYDSGFAYWGQGTLVTVSE VL: DIVLTQSPASLAVSLGQRATISCRASQSVSTSSSSFMHWYQQKPGQPPKLLIKYASNLESGVPARFSGSGSGTDFTLNIHPVEEEDTATYYCQHSWEIPYTFGGGTKLEIKR"
0.0314,0.0474,6.01,0.892,0.0381,"m7B4 (antibody, V domains shown, Murine hybridoma IgG (printed 'mIgG'); also called 7B4-mIgG; 7B4 murine) VH: EVKLFESGGGLVQPGGSLKLSCVASGFDFSTYWMHWVRQAPGQGLEWIGQINPDSTTINYAPSLKDRFIISRDNAKNTLFLQMSKVRSEDTALYYCAKPGDYGYDFDCWGQGTTLTVSS VL: DVLMTQTPLYLPVSLGDQASISCRSSQIIVHSNANTYLEWFLQKPGQSPKLLIYKVSNRFSGVPDRFSGSGSGTDFTLKISRVEAEDLGVYYCFQGSHVPYTFGGGTKLEIK"
0.0182,0.041,1.53,0.344,0.0082,"m8C6 (antibody, V domains shown, Murine hybridoma IgG (printed 'mIgG'); also called 8C6-mIgG; 8C6 murine) VH: QVQLKQSGPGLVQPSQSLSITCTVSGFSLTSYGVHWVRQSPGKGLEWLGVIWSGGVTDYNAAFISRLSISKDNSKSQVFFKMNSLQANDTAIYYCARLGFYAMDYWGQGTSVTVSS VL: SIVMTQTPKFLLVSAGDRVTITCKASQSVSNDVGWYQQKPGQSPKLLIYYASNRYSGVPDRFTGSGYGTDFTFTISTVQAEDLAVYFCQQDYTSPYTFGGGTKLEIK"

# — patent US20170204184A1 (CB THERAPEUTICS, published 2017)
